In article PMC3315512:

How the values were obtained:
[1] = target: CeHsc70-Δ512 (lidless CeHsc70) (C. elegans) (UniProt P09446)
[2] = target: CeHsc70-Δ545 (half-lid deletion of CeHsc70) (C. elegans) (UniProt P09446)
Sequence of CeHsc70-Δ545 (half-lid deletion of CeHsc70) (C. elegans) (P09446 1-545, stated change not applied): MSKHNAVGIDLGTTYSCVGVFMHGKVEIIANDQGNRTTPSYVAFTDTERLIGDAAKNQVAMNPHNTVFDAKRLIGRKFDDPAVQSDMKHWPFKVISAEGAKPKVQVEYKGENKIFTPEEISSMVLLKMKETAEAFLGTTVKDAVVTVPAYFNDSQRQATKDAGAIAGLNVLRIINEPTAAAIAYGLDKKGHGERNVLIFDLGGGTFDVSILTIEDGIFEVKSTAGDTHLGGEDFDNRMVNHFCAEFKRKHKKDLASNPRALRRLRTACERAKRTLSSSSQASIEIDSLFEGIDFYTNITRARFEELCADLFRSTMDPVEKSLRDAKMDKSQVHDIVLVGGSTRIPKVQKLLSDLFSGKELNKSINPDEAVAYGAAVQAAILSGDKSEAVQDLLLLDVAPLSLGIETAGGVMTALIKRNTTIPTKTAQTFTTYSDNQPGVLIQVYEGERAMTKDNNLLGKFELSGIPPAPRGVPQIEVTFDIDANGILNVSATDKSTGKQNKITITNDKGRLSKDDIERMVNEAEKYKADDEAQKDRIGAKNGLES

Sequence of DNJ-13 (C. elegans, unlabelled), Q20774 1-331 (natural protein) (Q20774 entry or part of it): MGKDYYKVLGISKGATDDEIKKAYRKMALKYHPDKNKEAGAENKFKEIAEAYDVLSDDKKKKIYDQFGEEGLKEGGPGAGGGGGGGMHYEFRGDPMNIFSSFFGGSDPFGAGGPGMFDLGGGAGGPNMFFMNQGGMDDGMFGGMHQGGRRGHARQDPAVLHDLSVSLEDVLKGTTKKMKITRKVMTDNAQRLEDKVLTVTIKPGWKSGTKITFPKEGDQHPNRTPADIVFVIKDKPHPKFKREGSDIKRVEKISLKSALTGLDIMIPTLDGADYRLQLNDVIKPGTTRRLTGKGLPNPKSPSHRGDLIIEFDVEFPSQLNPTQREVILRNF
Sequence of CeHsc70-Δ512 (lidless CeHsc70) (C. elegans) (P09446 1-512, stated change not applied): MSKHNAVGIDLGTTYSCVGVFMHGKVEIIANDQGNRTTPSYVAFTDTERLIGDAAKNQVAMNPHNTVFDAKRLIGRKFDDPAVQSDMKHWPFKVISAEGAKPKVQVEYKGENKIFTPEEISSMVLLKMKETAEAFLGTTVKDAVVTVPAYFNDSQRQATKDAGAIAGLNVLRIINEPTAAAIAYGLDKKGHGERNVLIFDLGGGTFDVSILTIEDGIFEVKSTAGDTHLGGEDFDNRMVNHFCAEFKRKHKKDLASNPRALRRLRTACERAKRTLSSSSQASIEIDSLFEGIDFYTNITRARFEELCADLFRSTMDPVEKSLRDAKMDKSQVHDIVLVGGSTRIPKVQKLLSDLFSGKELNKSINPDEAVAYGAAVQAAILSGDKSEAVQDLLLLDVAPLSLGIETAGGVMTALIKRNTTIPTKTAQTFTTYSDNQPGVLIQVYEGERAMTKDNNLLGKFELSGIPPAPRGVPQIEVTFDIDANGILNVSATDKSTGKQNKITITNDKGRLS

apparent KD of DNJ-13 from titration of the steady-state ATPase activity of 1 µM CeHsc70-Δ512 in the presence of 2 µM BAG-1, standard buffer, 25°C [1]: 1200 nM
apparent KD of DNJ-13 from titration of the steady-state ATPase activity, standard buffer, 25°C [2]: 4200 nM
Substance: DNJ-13 (C. elegans, unlabelled), Q20774 1-331 (natural protein)
